How the values were obtained:
[1] = system: tumor cells and macrophages of primary mammary tumors; experiment: in vivo invasion assay, needles with matrigel and growth factors in primary mammary tumor; parameters: species or system rats and mice; conditions: factor in matrigel-filled needle placed in primary tumor
Source text: (§1) Therefore, an in vivo invasion assay was created in which three needles (microneedles ˜100 um in diameter) containing matrigel and various growth factors are placed independently with microscopic precision, using a specially designed micromanipulator guided device, into the primary tumor for chemotaxis-based cell collection in vivo [3]. One needle contains control conditions (usually no ligand or an inhibitor), and the other two are identical. […] Fetal serum was also sufficient but this required signaling by the EGF receptor again implicating the EGF receptor. Furthermore, CSF-1 was also sufficient for cell collection. […] Migration and collection was directly correlated with macrophage density in the mammary gland, stage of progression to malignancy (only background levels of cells, <200 cells, were collected from normal mammary glands and adenoma stage tumors compared with carcinoma stage tumors, ˜1000 cells) and the presence of CSF1 in the tumor was required for cell collection as shown using mouse models with either decreased (op/op) or increased (tet on CSF-1) CSF-1 expression that regulates macrophage recruitment to the mammary gland and metastasis. […] Furthermore, the motility of tumor cells and intravasation occurs preferentially in association with macrophages. […]

[2] = system: MDA-MB-231 derived mammary tumors; experiment: in vivo invasion assay, MDA-MB-231 derived mammary tumors; parameters: species or system human tumor xenograft in SCID mice tumor xenograft in SCID mice; conditions: MDA-MB-231 injected into mammary fat pad of mice; FIG. 1C
Source text: Therefore, an in vivo invasion assay was created in which three needles (microneedles ˜100 um in diameter) containing matrigel and various growth factors are placed independently with microscopic precision, using a specially designed micromanipulator guided device, into the primary tumor for chemotaxis-based cell collection in vivo [3]. One needle contains control conditions (usually no ligand or an inhibitor), and the other two are identical. […] Fetal serum was also sufficient but this required signaling by the EGF receptor again implicating the EGF receptor. Furthermore, CSF-1 was also sufficient for cell collection. […]
Mammary tumors derived by injecting the human cell line MDA-MB-231 into a mammary fat pad of mice were used in the in vivo invasion assay. […] The involvement of EGF and CSF1 in carcinoma cell invasion has been analyzed from primary breast tumors derived from the injection of MDA-MB-231 cells into the mammary fat pads of SCID mice. […]

[3] = system: Human lung tumors heterotransplanted into nude mice; experiment: in vivo invasion assay, chemotaxis-based cell collection into needles, human lung tumor heterotransplants; conditions: needles containing 25 nM EGF; first mouse to mouse transplant
Source text: as §1

Molecule | chemotaxis to indwelling needles / cell collection [1] | fold more cells collected in response to EGF [2] [fold] | fold more cells collected in needles as compared to needles with buffer alone [3] [fold]
CSF-1: growth factor chemotactic for macrophages (protein, UniProt P09603 33-554, looked up) Macrophage colony-stimulating …: EEVSEYCSHMIGSGHLQSLQRLIDSQMETSCQITFEFVDQEQLKDPVCYLKKAFLLVQDIMEDTMRFRDNTPNAIAIVQLQELSLRLKSCFTKDYEEHDKACVRTFYETPLQLLEKVKNVFNETKNLLDKDWNIFSKNCNNSFAECSSQDVVTKPDCNCLYPKAIPSSDPASVSPHQPLAPSMAPVAGLTWEDSEGTEGSSLLPGEQPLHTVDPGSAKQRPPRSTCQSFEPPETPVVKDSTIGGSPQPRPSVGAFNPGMEDILDSAMGTNWVPEEASGEASEIPVPQGTELSPSRPGGGSMQTEPARPSNFLSASSPLPASAKGQQPADVTGTALPRVGPVRPTGQDWNHTPQKTDHPSALLRDPPEPGSPRISSLRPQGLSNPSTLSAQPQLSRSHSSGSVLPLGELEGRRSTRDRRSPAEPEGGPASEGAARPLPRFNSVPLTDTGHERQSEGSFSPQLQESVFHLLVPSVILVLLAVGGLLFYRWRRRSHQEPQRADSPLEQPEGSPLTQDDRQVELPV | sufficient |  | 
EGF: epidermal growth factor, chemotactic factor used in collection needles (protein, UniProt P01133 23-1207, looked up, Pro-epidermal growth factor, epidermal growth factor, chemotactic factor used in collection needles) Pro-epidermal growth factor: PQHWSCPEGTLAGNGNSTCVGPAPFLIFSHGNSIFRIDTEGTNYEQLVVDAGVSVIMDFHYNEKRIYWVDLERQLLQRVFLNGSRQERVCNIEKNVSGMAINWINEEVIWSNQQEGIITVTDMKGNNSHILLSALKYPANVAVDPVERFIFWSSEVAGSLYRADLDGVGVKALLETSEKITAVSLDVLDKRLFWIQYNREGSNSLICSCDYDGGSVHISKHPTQHNLFAMSLFGDRIFYSTWKMKTIWIANKHTGKDMVRINLHSSFVPLGELKVVHPLAQPKAEDDTWEPEQKLCKLRKGNCSSTVCGQDLQSHLCMCAEGYALSRDRKYCEDVNECAFWNHGCTLGCKNTPGSYYCTCPVGFVLLPDGKRCHQLVSCPRNVSECSHDCVLTSEGPLCFCPEGSVLERDGKTCSGCSSPDNGGCSQLCVPLSPVSWECDCFPGYDLQLDEKSCAASGPQPFLLFANSQDIRHMHFDGTDYGTLLSQQMGMVYALDHDPVENKIYFAHTALKWIERANMDGSQRERLIEEGVDVPEGLAVDWIGRRFYWTDRGKSLIGRSDLNGKRSKIITKENISQPRGIAVHPMAKRLFWTDTGINPRIESSSLQGLGRLVIASSDLIWPSGITIDFLTDKLYWCDAKQSVIEMANLDGSKRRRLTQNDVGHPFAVAVFEDYVWFSDWAMPSVMRVNKRTGKDRVRLQGSMLKPSSLVVVHPLAKPGADPCLYQNGGCEHICKKRLGTAWCSCREGFMKASDGKTCLALDGHQLLAGGEVDLKNQVTPLDILSKTRVSEDNITESQHMLVAEIMVSDQDDCAPVGCSMYARCISEGEDATCQCLKGFAGDGKLCSDIDECEMGVPVCPPASSKCINTEGGYVCRCSEGYQGDGIHCLDIDECQLGEHSCGENASCTNTEGGYTCMCAGRLSEPGLICPDSTPPPHLREDDHHYSVRNSDSECPLSHDGYCLHDGVCMYIEALDKYACNCVVGYIGERCQYRDLKWWELRHAGHGQQQKVIVVAVCVVVLVMLLLLSLWGAHYYRTQKLLSKNPKNPYEESSRDVRSRRPADTEDGMSSCPQPWFVVIKEHQDLKNGGQPVAGEDGQAADGSMQPTSWRQEPQLCGMGTEQGCWIPVSSDKGSCPQVMERSFHMPSYGTQTLEGGVEKPHSLLSANPLWQQRALDPPHQMELTQ | stimulated collection | 2.5 | 2.5
